According to publication PMC9427776, “TTYH family members form tetrameric complexes at the cell membrane” (Communications Biology, 2022):

B1: mTTYH3-EGFP (HEK 293, pEGFP-N1) [mouse] / itself (parent)
chain: MAGVSYAAPWWVSLLHRLPHFDLRWEATSSQFRPEDADYQQALLLLGATALACLALDLLFLLFYSFWLCCRRRKTDEHLDADCCCTAWCVIITTLVCSAGIAVGFYGNGETSDGIHRATYSLRHANRTVAGVQDRVWDTAAALNRTAEPNLQSLERQLAGRQEPLRAVQRLQTLLGTLLGYTAAIPFWRNPGVSLEVLAEQVDLYDWYRWLGYLGLLLLDVIICLLVLVGLIRSSKGILVGVCLLGVLALVISWGALGLELAVSVGSSDFCVDPDTFVTKMVEEHSVLSGDILQYYLACSPRATNPFQQKLSGSHKALVEMQDVVAELLRNVPREHPATKDPLLRVQEVLNGTEVNLQHLTALVDCRSLHLDYVQALTGFCYDGVEGLIYLALFSFVTALMFSSIVCSIPHTWQQKRGPDDDGEEETAPGPRQAHDSLYRVHMPSLYSCGSSYGSEASIPAAAHTVSNAPVTEYMSQNANFQNPRCENTPLIGRESPPPSYTSSMRAKYLATSQPRPDSSGSGH

Variants of: B1
Test: FSEC
Details: with itself; DDM solubilized HEK 293 cells; n = 3; parent: 0.98; read off a plot

screen value	Variant
0.25	MAGVSYAAPWWVSLLHRLPHFDLRWEATSSQFRPEDADYQQALLLLGATALACLALDLLFLLFYSFWLCCRRRKTDEHLDADCCCTAWCVIITTLVCSAGIAVGFYGNGETSDGIHRATYSLRHANRTVAGVQDRVWDTAAALNRTAEPNLQSLERQLAGRQEPLRAVQRLQTLLGTLLGYTAAIPFWRNPGVSLEVLAEQVDLYDWYRWLGYLGLLLLDVIICLLVLVGLIRSSKGILVGVCLLGVLALVISWGALGLELAVSVGSSDFCVDPDTFVTKMVEEHSVLSGDILQYYLACSPRATNPFQQKLSGSHKALVEMQDVVAELLRNVPREHPATKDPLLRVQEVLNGTEVNLQHLTALVDARSLHLDYVQALTGFCYDGVEGLIYLALFSFVTALMFSSIVCSIPHTWQQKRGPDDDGEEETAPGPRQAHDSLYRVHMPSLYSCGSSYGSEASIPAAAHTVSNAPVTEYMSQNANFQNPRCENTPLIGRESPPPSYTSSMRAKYLATSQPRPDSSGSGH [chain 1 C366A]
0.27	MAGVSYAAPWWVSLLHRLPHFDLRWEATSSQFRPEDADYQQALLLLGATALACLALDLLFLLFYSFWLCCRRRKTDEHLDADCCCTAWCVIITTLVCSAGIAVGFYGNGETSDGIHRATYSLRHANRTVAGVQDRVWDTAAALNRTAEPNLQSLERQLAGRQEPLRAVQRLQTLLGTLLGYTAAIPFWRNPGVSLEVLAEQVDLYDWYRWLGYLGLLLLDVIICLLVLVGLIRSSKGILVGVCLLGVLALVISWGALGLELAVSVGSSDFCVDPDTFVTKMVEEHSVLSGDILQYYLAASPRATNPFQQKLSGSHKALVEMQDVVAELLRNVPREHPATKDPLLRVQEVLNGTEVNLQHLTALVDCRSLHLDYVQALTGFCYDGVEGLIYLALFSFVTALMFSSIVCSIPHTWQQKRGPDDDGEEETAPGPRQAHDSLYRVHMPSLYSCGSSYGSEASIPAAAHTVSNAPVTEYMSQNANFQNPRCENTPLIGRESPPPSYTSSMRAKYLATSQPRPDSSGSGH [chain 1 C299A]
